Test results published in patent publication US20090048117A1, “MODULATION OF IMMUNE SYSTEM FUNCTION BY MODULATION OF POLYPEPTIDE ARGININE METHYLTRANSFERASES” (President and Fellows of Harvard College, priority 2003, published 2009).

Columns and labels:
Assay type in all cases: cell-based
[1] = system: M12 B lymphoma cells; assay: Endogenous IL-4 production by transfected M12 B lymphoma cells (ELISA); settings: M12 cells cotransfected with NFATp and c-Maf; supernatants at 72 hours
Description: FIG. 10 is a bar graph depicting the level of IL-4 (in pg/ml) in the supernatants of M12 B lymphoma cells transiently cotransfected with expression plasmids for NFATp, c-Maf and a pCI vector control (top bar) or expression plasmids for NFATp, c-Maf and NIP45 (bottom bar).
M12 cells were transiently transfected by electroporation as previously described (Ho, I. C. et al. (1996) Cell 85:973-983) by incubating 3×10^6 cells in 0.4 ml of PBS with 5 μg of each plasmid for 10 minutes at room temperature prior to electroporation at 975 μF, 280 V. Levels of IL-4 in the supernatants harvested 72 hours later were measured by a commercially available IL-4 ELISA (Pharmingen), performed according to the manufacturer's instructions except with modification as described (Ho, I. C. et al. (1996) supra). Four independent sets of transient transfections were done and assayed for secretion of IL-4 into the culture supernatant. For each set of transfections, inclusion of NIP45 led to a dramatic increase in IL-4 production.

[2] = system: IL-4 promoter; assay: IL-4-CAT reporter assay in HepG2 cells; settings: NIP45 together with NFATp and c-Maf
Description: FIG. 9 depicts CAT assay results (left) and a bar graph quantitating the relative fold induction of CAT activity (right) in HepG2 cells transfected with an IL-4-CAT reporter gene, construct (extending to −732 bp of the IL-4 promoter) and combinations of NFATp, NIP45 and/or c-Maf expression constructs, as indicated.
Although a reporter construct containing multiple copies of the NFAT binding site provides a sensitive method for measuring transactivation by NFAT and NIP45, it was determined if NIP45 was functional in the context of a native NFAT-dependent promoter. IL-4 expression is highly tissue specific and restricted to the Th2 subset of T cells and to mast cells. […] Thus, the IL-4 promoter is not active in the HepG2 cell line but can be activated by the introduction of NFATp and c-maf. In cotransfection experiments carried out as described above, HepG2 cells were transfected with an IL-4-CAT reporter construct (extending to −732 bp of the IL-4 promoter) and expression vectors or controls for NIP45, NFATp and c-Maf. The controls for NIP45 was a frame shift mutant at amino acid 13. Controls for NFATp and c-Maf were the empty expression vectors pREP4 and pMEX respectively (Ho, I. C. et al. (1996) Cell 85:973-983). The results of these experiments are shown in FIG. 9 (representative CAT assays and bar graphs are depicted as in FIG. 8).

[3] = system: 3X NFAT-CAT reporter; assay: 3X NFAT-CAT reporter assay in HepG2 cells
Excerpt: FIG. 8 depicts CAT assay results (left) and a bar graph quantitating the relative fold induction of CAT activity (right) in HepG2 cells transfected with a 3X NFAT-CAT reporter gene construct (containing three NFAT binding sites) and either a control expression plasmid or an NFAT family expression plasmid (NFATp, NFATc, NFAT3 or NFAT4), alone (−) or in combination with a NIP45 expression plasmid (^+).
To test for a functional role of NIP45 in NFAT-driven transcription, NIP45 was expressed at high levels in HepG2 cells. […] HepG2 cells were transfected with a 3X NFAT-CAT reporter from the IL-2 gene (Venkataraman, L. et al. (1994) Immunity 1:189-196) and control or expression plasmids for a NIP45 and NFAT family members (NFATp, NFATc, NFAT3, NFAT4). HepG2 cells were transfected by the DEAE-Dextran method as described in Hoey, T. et al. (1995) supra, and CAT assays were performed according to standard methodologies. One representative assay for each combination is shown adjacent to a bar graph representing relative CAT activity for each group. Fold induction was calculated by normalizing the CAT activity of cells transfected with the CAT reporter and each parental expression vector to one. Values represent the relative level of CAT expression above this control transfection. All transfections were performed at least three times with one representative autoradiograph shown.

B1: NIP45: 45 Kd NFAT interacting protein of 412 amino acids (SEQ ID NO: 2), expressed from a transfected expression plasmid (protein, listed as Mus musculus)
chain: MAEPLRGRGPRSRGGRGARRARGARGRCPRARQSPARLIPDTVLVDLVSDSDEEVLEVADPVEVPVARLPAPAKPEQDSDSDSEGAAEGPAGAPRTLVRRRRRRLLDPGEAPVVPVYSGKVQSSLNLIPDNSSLLKLCPSEPEDEADLTNSGSSPSEDDALPSGSPWRKKLRKKCEKEEKKMEEFPDQDISPLPQPSSRNKSRKHTEALQKLREVNKRLQDLRSCLSPKQHQSPALQSTDDEVVLVEGPVLPQSSRLFTLKIRCRADLVRLPVRMSEPLQNVVDHMANHLGVSPNRILLLFGESELSPTATPSTLKLGVADIIDCVVLASSSEATETSQELRLRVQGKEKHQMLEISLSPDSPLKVLMSHYEEAMGLSGHKLSFFFDGTKLSGKELPADLGLESGDLIEVWG
endogenous IL-4 production relative to cells that did not receive NIP45 [1]: 50-200 fold | increase in activity of the IL-4 promoter relative to NFATp and c-Maf alone [2]: 9 fold | increase in CAT activity over vector alone ([3]; NIP45 cotransfected with NFATp): 25-30 fold | increase in CAT activity relative to transfection with NFATp alone ([3]; NIP45 cotransfected with NFATp): 4-5 fold | CAT expression from 3X NFAT-CAT reporter ([3]; NIP45 transfected alone): did not lead to a significant increase
